Results taken from patent US20120316071A1 (published 2012).
Values belong to the binder of their own block, whether it stands above or below them.

How the values were obtained:
[1] = target: T1, rHuman IGF-1 sR, (IGF-1 sR), CF (R&D Systems Cat#391-GR) (human, UniProt P08069 31-932); assay: ECL multispot (MSD), antigen spotted, 10 nM Fab; blank spot of this row 204
T1 construct: Bought recombinant soluble receptor; also called insulin-like growth factor-1 soluble receptor

[2] = target: T2, rHuman P-Cadherin/Fc Chimera, CF (R&D Systems Cat#861-PC) (human, UniProt P22223 108-654); assay: as above
T2 construct: Bought recombinant protein; Fc part of the bought chimera not given

[3] = target: T3, rHuman Erythropoietin R/Fc Chimera, CF (R&D Systems Cat#963-ER) (human, UniProt P19235 25-250); assay: as above
T3 construct: Bought recombinant protein; also called EPO R; EPO R/Fc; Fc part of the bought chimera not given
T3 sequence (looked up): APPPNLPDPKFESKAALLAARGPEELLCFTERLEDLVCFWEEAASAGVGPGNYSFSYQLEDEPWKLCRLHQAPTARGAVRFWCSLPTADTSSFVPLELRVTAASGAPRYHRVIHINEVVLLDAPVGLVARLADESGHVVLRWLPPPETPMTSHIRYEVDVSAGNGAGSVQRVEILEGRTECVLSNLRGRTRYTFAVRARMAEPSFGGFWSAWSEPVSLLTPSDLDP

[4] = target: T4, rHuman ErbB2/Fc Chimera, CF (R&D Systems Cat#1129-ER) (human, UniProt P04626 23-652); assay: as above
T4 construct: Bought recombinant protein; also called human epidermal growth factor 2 receptor; Fc part of the bought chimera not given

[5] = target: T5, rHuman EGF R/Fc Chimera, CF (R&D Systems Cat#344-ER) (human, UniProt P00533 25-645); assay: as above
T5 construct: Bought recombinant protein; also called epidermal growth factor receptor; Fc part of the bought chimera not given

[6] = target: T6, rHuman HGF R/c-MET/Fc Chimera, CF (R&D Systems Cat#358-MT/CF) (human, UniProt P08581 25-932); assay: as above
T6 construct: Bought recombinant protein; also called HGF R/Fc; hepatocyte growth factor receptor; Fc part of the bought chimera not given
T6 sequence (P08581 25-932, change not shown): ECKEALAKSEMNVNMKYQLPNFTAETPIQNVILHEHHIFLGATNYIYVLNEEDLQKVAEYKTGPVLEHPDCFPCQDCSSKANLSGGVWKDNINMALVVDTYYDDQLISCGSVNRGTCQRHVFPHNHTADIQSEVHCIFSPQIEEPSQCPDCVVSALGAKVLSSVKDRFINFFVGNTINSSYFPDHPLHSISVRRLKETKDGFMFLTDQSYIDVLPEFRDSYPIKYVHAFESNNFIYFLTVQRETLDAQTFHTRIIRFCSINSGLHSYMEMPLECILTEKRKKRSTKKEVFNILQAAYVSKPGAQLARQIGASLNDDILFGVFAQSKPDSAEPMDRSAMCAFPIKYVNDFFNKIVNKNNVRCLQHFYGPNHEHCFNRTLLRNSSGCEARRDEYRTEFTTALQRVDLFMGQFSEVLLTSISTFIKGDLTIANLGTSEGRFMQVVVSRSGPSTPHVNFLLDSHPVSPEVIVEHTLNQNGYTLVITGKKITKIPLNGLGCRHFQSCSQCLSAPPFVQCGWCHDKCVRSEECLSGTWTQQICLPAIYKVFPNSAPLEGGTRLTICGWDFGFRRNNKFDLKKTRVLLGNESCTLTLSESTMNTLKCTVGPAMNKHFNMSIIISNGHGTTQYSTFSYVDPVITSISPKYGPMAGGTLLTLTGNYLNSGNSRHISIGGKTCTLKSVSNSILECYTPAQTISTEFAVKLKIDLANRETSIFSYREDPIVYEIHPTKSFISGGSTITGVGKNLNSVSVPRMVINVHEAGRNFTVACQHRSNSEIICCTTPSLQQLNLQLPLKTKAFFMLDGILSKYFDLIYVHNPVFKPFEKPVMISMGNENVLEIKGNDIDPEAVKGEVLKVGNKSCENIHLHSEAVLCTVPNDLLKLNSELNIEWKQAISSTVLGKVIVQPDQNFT

[7] = target: T7, rHuman Notch-1/Fc Chimera, CF (R&D Systems Cat#3647-TK) (human, UniProt P46531 19-526); assay: as above
T7 construct: Bought recombinant protein; Fc part of the bought chimera not given

[8] = target: T8, rHuman CD44/Fc Chimera, CF (R&D Systems Cat#3660-CD) (human, UniProt P16070 21-220); assay: as above
T8 construct: Bought recombinant protein; Fc part of the bought chimera not given

[9] = target: T1, rHuman IGF-1 sR, (IGF-1 sR), CF (R&D …); assay: ECL multispot (MSD), antigen spotted, 10 nM Fab; blank spot of this row 239
[10] = target: T2, rHuman P-Cadherin/Fc Chimera, CF (R&D …); assay: as above
[11] = target: T3, rHuman Erythropoietin R/Fc Chimera, CF …; assay: as above
[12] = target: T4, rHuman ErbB2/Fc Chimera, CF (R&D …); assay: as above
[13] = target: T5, rHuman EGF R/Fc Chimera, CF (R&D …); assay: as above
[14] = target: T6, rHuman HGF R/c-MET/Fc Chimera, CF (R&D …); assay: as above
[15] = target: T7, rHuman Notch-1/Fc Chimera, CF (R&D …); assay: as above
[16] = target: T8, rHuman CD44/Fc Chimera, CF (R&D Systems …); assay: as above
[17] = target: T1, rHuman IGF-1 sR, (IGF-1 sR), CF (R&D …); assay: ECL multispot (MSD), antigen spotted, 10 nM Fab; blank spot of this row 271
[18] = target: T2, rHuman P-Cadherin/Fc Chimera, CF (R&D …); assay: as above
[19] = target: T3, rHuman Erythropoietin R/Fc Chimera, CF …; assay: as above
[20] = target: T4, rHuman ErbB2/Fc Chimera, CF (R&D …); assay: as above
[21] = target: T5, rHuman EGF R/Fc Chimera, CF (R&D …); assay: as above
[22] = target: T6, rHuman HGF R/c-MET/Fc Chimera, CF (R&D …); assay: as above
[23] = target: T7, rHuman Notch-1/Fc Chimera, CF (R&D …); assay: as above
[24] = target: T8, rHuman CD44/Fc Chimera, CF (R&D Systems …); assay: as above
[25] = target: T1, rHuman IGF-1 sR, (IGF-1 sR), CF (R&D …); assay: ECL multispot (MSD), antigen spotted, 10 nM Fab; blank spot of this row 248
[26] = target: T2, rHuman P-Cadherin/Fc Chimera, CF (R&D …); assay: as above
[27] = target: T3, rHuman Erythropoietin R/Fc Chimera, CF …; assay: as above
[28] = target: T4, rHuman ErbB2/Fc Chimera, CF (R&D …); assay: as above
[29] = target: T5, rHuman EGF R/Fc Chimera, CF (R&D …); assay: as above
[30] = target: T6, rHuman HGF R/c-MET/Fc Chimera, CF (R&D …); assay: as above
[31] = target: T7, rHuman Notch-1/Fc Chimera, CF (R&D …); assay: as above
[32] = target: T8, rHuman CD44/Fc Chimera, CF (R&D Systems …); assay: as above
[33] = target: T9, rHuman Erythropoietin R/Fc Chimera, CF (R&D Systems Cat#963-ER) (human, UniProt P19235 25-250); assay: Multispot ECL (MSD) binding screen, antigen spotted on plate; hit = signal/blank >= 4
T9 construct: Bought Fc chimera; also called Epo R/Fc chimera; EPO R/Fc; Fc part of the bought chimera not given
T9 sequence (looked up): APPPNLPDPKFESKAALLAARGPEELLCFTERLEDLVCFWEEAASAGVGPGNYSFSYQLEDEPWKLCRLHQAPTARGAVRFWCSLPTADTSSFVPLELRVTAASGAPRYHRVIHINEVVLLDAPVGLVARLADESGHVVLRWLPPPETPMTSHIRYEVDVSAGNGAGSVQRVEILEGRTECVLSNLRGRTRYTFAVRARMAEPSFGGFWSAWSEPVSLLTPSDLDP

- ECL signal [1]: 197
- ECL signal [2]: 208
- ECL signal [3]: 329
- ECL signal [4]: 157
- ECL signal [5]: 237
- ECL signal [6]: 272
- ECL signal [7]: 334
- ECL signal [8]: 96
- ECL signal [9]: 174
- ECL signal [10]: 256
- ECL signal [11]: 285
- ECL signal [12]: 340
- ECL signal [13]: 216
- ECL signal [14]: 171
- ECL signal [15]: 130
- ECL signal [16]: 236
- ECL signal [17]: 241
- ECL signal [18]: 297
- ECL signal [19]: 304
- ECL signal [20]: 330
- ECL signal [21]: 272
- ECL signal [22]: 306
- ECL signal [23]: 257
- ECL signal [24]: 189
B1: Fab VH1-46_IGHD6-6*01_IGHJ1*01 S102A/S103P/S104F (APF) & L6_IGKJ1*01 (Fab, V domains shown)
VH: QVQLVQSGAEVKKPGASVKVSCKASGYTFTSYYMHWVRQAPGQGLEWMGIINPSGGSTSYAQKFQGRVTMTRDTSTSTVYMELSSLRSEDTAVYYCAREEYAPFSAEYFQHWGQGTLVTVSS
VL: not shown
notes: Tested as Fab made in E. coli; The heavy chain was cloned in Plasmid A (CH1 constant region, His6 and Flag tags); The kappa light chain was cloned in Plasmid C (kappa CL); also called APF triple mutant; H:APF & L:wt

- ECL signal [25]: 191
- ECL signal [26]: 243
- ECL signal [27]: 329
- ECL signal [28]: 302
- ECL signal [29]: 272
- ECL signal [30]: 268
- ECL signal [31]: 302
- ECL signal [32]: 173
B2: Fab VH1-46_IGHD6-6*01_IGHJ1*01 S102A/S103P/S104F G55D & L6_IGKJ1*01 (Fab, V domains shown)
VH: QVQLVQSGAEVKKPGASVKVSCKASGYTFTSYYMHWVRQAPGQGLEWMGIINPSDGSTSYAQKFQGRVTMTRDTSTSTVYMELSSLRSEDTAVYYCAREEYAPFSAEYFQHWGQGTLVTVSS
VL: not shown
notes: Tested as Fab (CH1 with His6 and Flag tags, kappa CL); also called APF G55D

- binding result [33]: binds
B3: Fab VH1-46_IGHD7-27*01_IGHJ2*01 & A27_IGKJ1*01 (Fab, V domains shown)
VH: QVQLVQSGAEVKKPGASVKVSCKASGYTFTSYYMHWVRQAPGQGLEWMGIINPSGGSTSYAQKFQGRVTMTRDTSTSTVYMELSSLRSEDTAVYYCARANWGYWYFDLWGRGTLVTVSS
VL: not shown
notes: Fab; expressed in E. coli from Plasmid A (CH1, His6 and Flag tags) and Plasmid C (kappa CL)
